Results on one molecule are retold here after patent US12534541B2, “Anti-PTK7 antibody and uses thereof” (MABCARE THERAPEUTICS, priority 2023, dated 2026).

Data set [1] can be described thus: Size exclusion chromatography (SEC) for the degree of aggregation. In kind it is physicochemical. The note with it: integral analysis, product after preparation. As to the method: (§1) Activated charcoal powder (30 mg of powder per ml of liquid) was then added to the collection solution, which was suspended for 2 h at room temperature, centrifuged, and sterilized using a 0.22 μm filter membrane, and the activated charcoal particles were removed at the same time. The resulting product was calculated by UV for its concentration and DAR value, detected by hydrophobic chromatography (HIC) for product homogeneity, and detected by size exclusion chromatography (SEC) for the degree of aggregation. The products were placed in a refrigerator at −80° C. for cryopreservation.
as §1, with “At the end of the reaction, the coupling reaction mixture was immediately desalted and exchanged with histidine-acetic acid/NaCl buffer using a desalting column. Activated” for “Activated”, “product was” for “products were”, “cryopreservation. […]” for “cryopreservation.”

A further data set concerns OVCAR-3 cells. Briefly: In vivo anti-tumor activity against human ovarian cancer cell line OVCAR-3. The note with it: OVCAR-3 in NCG mice, i.v. 3 mg/kg or 5 mg/kg, 1 dose, vs negative control. As to the method: 6-week-old NCG mice, female, weighing 18-21 g, were purchased from Beijing Vital River Laboratory Animal Technology Co., Ltd. The mice were subcutaneously inoculated with OVCAR-3 cells (Human Ovarian Cancer Cells, ATCC, Catalog No. HTB-161). When the average tumor volume reached 150 mm^3, the antibody-drug conjugates Ab13-T1000-exatecan and h6M24-T1000-exatecan as prepared in Example 5 and the antibody-drug conjugate Ab13-vc0101 and h6M24-vc0101 as prepared in Example 8 were administered intravenously at a dose of 3 mg/kg or 5 mg/kg, respectively, and a negative control Vehicle group was set and administered intravenously with PBS at an equal dose, once a week for a total of 1 dose. After dosing, the tumor volume was measured twice a week using a vernier caliper and calculated according to the following formula: TV=(length*width^2)/2.

B1: h6M24-vc0101: control drug: h6M24 (cofetuzumab) linked to Aur0101 via mc-VC-PAB linker, DAR about 4 (conjugate, chains of the INN, looked up)
VH: QVQLVQSGPEVKKPGASVKVSCKASGYTFTDYAVHWVRQAPGKRLEWIGVISTYNDYTYNNQDFKGRVTMTRDTSASTAYMELSRLRSEDTAVYYCARGNSYFYALDYWGQGTSVTVSS
VL: EIVLTQSPATLSLSPGERATLSCRASESVDSYGKSFMHWYQQKPGQAPRLLIYRASNLESGIPARFSGSGSGTDFTLTISSLEPEDFAVYYCQQSNEDPWTFGGGTKLEIK
modifications: Aur0101 via mc-VC-PAB linker, DAR 4
Take B1: in data set [1], the percentage of aggregates was found to be 1.39%. Moreover, in the data set on OVCAR-3 cells, the “tumor growth inhibition (tumor volume over time)” value is recorded as “less effective in inhibiting tumor growth”.
